Measured values: patent publication US20120316071A1 (published 2012)
Numbering of substitutions follows the chain as printed. Names and notes keep the numbering of the source.

Assays:
[1] = target: T1, rHuman HGF R/c-MET/Fc Chimera, CF (R&D Systems Cat#358-MT/CF) (human, UniProt P08581 25-932); experiment: MSD multispot ECL, antigen spotted, Fab 0.6 nM; blank spot 226
T1 construct: Bought reagent; also called HGF R/Fc; hepatocyte growth factor receptor

[2] = target: T2, rHuman IGF-1 sR, (IGF-1 sR), CF (R&D Systems Cat#391-GR) (human, UniProt P08069 31-932); experiment: as above
T2 construct: Bought soluble receptor; also called insulin-like growth factor-1 soluble receptor

[3] = target: T3, rHuman ErbB2/Fc Chimera, CF (R&D Systems Cat#1129-ER) (human, UniProt P04626 23-652); experiment: as above
T3 construct: Bought reagent; also called human epidermal growth factor 2 receptor

[4] = target: T4, rHuman IGF-1 sR, CF (R&D Systems Cat#391-GR) (human, UniProt P08069 31-932); experiment: ECL Multispot (MSD), antigen spotted; Fab 0.50 (µM); blank 142
T4 construct: Bought recombinant soluble receptor; also called insulin-like growth factor-1 soluble receptor

[5] = target: T5, rHuman HGF R/c-MET/Fc Chimera, CF (R&D Systems Cat#358-MT/CF) (human, UniProt P08581 25-932); experiment: as above
T5 construct: Bought recombinant protein; also called HGF R/Fc; Fc part of the bought chimera not given

[6] = target: T6, rHuman ErbB2/Fc Chimera, CF (R&D Systems Cat#1129-ER) (human, UniProt P04626 23-652); experiment: as above
T6 construct: Bought recombinant protein; Fc part of the bought chimera not given

[7] = target: T7, rHuman P-Cadherin/Fc Chimera, CF (R&D Systems Cat#861-PC) (human, UniProt P22223 108-654); experiment: as above
T7 construct: Bought recombinant protein; Fc part of the bought chimera not given

[8] = target: T8, rHuman EGF R/Fc Chimera, CF (R&D Systems Cat#344-ER) (human, UniProt P00533 25-645); experiment: as above
T8 construct: Bought recombinant protein; Fc part of the bought chimera not given

[9] = target: T9, Recombinant Human DLL4 (R&D Systems Cat#1506-D4/CF) (human, UniProt Q9NR61 27-529); experiment: as above
T9 construct: Bought recombinant protein; also called delta-like protein 4; rHuman DLL4

[10] = target: T10, rHuman Erythropoietin R/Fc Chimera, CF (R&D Systems Cat#963-ER) (human, UniProt P19235 25-250); experiment: as above
T10 construct: Bought recombinant protein; also called EPO R; EPO R/Fc; Fc part of the bought chimera not given
T10 sequence (looked up): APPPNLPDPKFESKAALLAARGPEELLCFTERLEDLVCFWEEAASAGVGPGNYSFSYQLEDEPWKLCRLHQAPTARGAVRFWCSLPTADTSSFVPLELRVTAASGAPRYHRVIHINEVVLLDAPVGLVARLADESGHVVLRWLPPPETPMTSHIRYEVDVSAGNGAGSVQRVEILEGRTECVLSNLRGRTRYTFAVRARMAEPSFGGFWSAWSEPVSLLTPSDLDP

[11] = target: T11, rHuman Notch-1/Fc Chimera, CF (R&D Systems Cat#3647-TK) (human, UniProt P46531 19-526); experiment: as above
T11 construct: Bought recombinant protein; Fc part of the bought chimera not given

[12] = target: T12, rHuman P-Cadherin/Fc Chimera, CF (R&D Systems Cat#861-PC) (human, UniProt P22223 108-654); experiment: Multispot ECL (MSD) titration; antigen spotted on plate; Fab 392.5 nM; blank spot 338
T12 construct: Bought Fc chimera; Fc part of the bought chimera not given

[13] = target: T13, rHuman Notch-1/Fc Chimera, CF (R&D Systems Cat#3647-TK) (human, UniProt P46531 19-526); experiment: as above
T13 construct: Bought Fc chimera; Fc part of the bought chimera not given

[14] = target: T14, rHuman HGF R/c-MET/Fc Chimera, CF (R&D Systems Cat#358-MT/CF) (human, UniProt P08581 25-932); experiment: as above
T14 construct: Bought Fc chimera; also called HGF R/Fc; hepatocyte growth factor receptor; Fc part of the bought chimera not given

[15] = target: T15, rHuman Erythropoietin R/Fc Chimera, CF (R&D Systems Cat#963-ER) (human, UniProt P19235 25-250); experiment: as above
T15 construct: Bought Fc chimera; also called EPO R/Fc; EPO R; Fc part of the bought chimera not given
T15 sequence (looked up): T10 sequence (looked up)

[16] = target: T16, rHuman CD44/Fc Chimera, CF (R&D Systems Cat#3660-CD) (human, UniProt P16070 21-220); experiment: as above
T16 construct: Bought Fc chimera; Fc part of the bought chimera not given

[17] = target: T17, Recombinant Human DLL4 (R&D Systems Cat#1506-D4/CF) (human, UniProt Q9NR61 27-524); experiment: as above
T17 construct: Bought recombinant protein; also called delta-like protein 4; rHuman DLL4

[18] = target: T18, rHuman IGF-1 sR (IGF-1 sR), CF (R&D Systems Cat#391-GR) (human, UniProt P08069 31-932); experiment: as above
T18 construct: Bought soluble receptor; also called insulin-like growth factor-1 soluble receptor

[19] = target: T19, rHuman ErbB2/Fc Chimera, CF (R&D Systems Cat#1129-ER) (human, UniProt P04626 23-652); experiment: as above
T19 construct: Bought Fc chimera; also called human epidermal growth factor 2 receptor; Fc part of the bought chimera not given

B1: Fab VH1-46_IGHD6-6*01_IGHJ1*01 & L6_IGKJ1*01 (Fab, V domains shown)
VH: QVQLVQSGAEVKKPGASVKVSCKASGYTFTSYYMHWVRQAPGQGLEWMGIINPSGGSTSYAQKFQGRVTMTRDTSTSTVYMELSSLRSEDTAVYYCAREEYSSSSAEYFQHWGQGTLVTVSS
VL: not shown
notes: Only variable domains are tied to the molecule; Tested as a Fab made in E. coli: heavy chain from Plasmid A (CH1 constant region, His6 and Flag tags), kappa light chain from Plasmid C (kappa CL); also called parent Hit Fab against DLL4; VH1-46_IGHD6-6*01_IGHJ1*01 & L6_IGKJ1*01 (parental)
[1]
  ECL signal: 256 ECL signal
[2]
  ECL signal: 313 ECL signal
[3]
  ECL signal: 215 ECL signal

B2: Fab VH1-46_IGHD6-6*01_IGHJ1*01 S102A/S103P/S104F (APF) & L6_IGKJ1*01 (Fab, V domains shown)
VH: B1 VH with S102A, S103P, S104F
VL: not shown
notes: Tested as a Fab made in E. coli: VH cloned in Plasmid A (CH1 constant region, His6 and Flag tags), VL in Plasmid C (kappa constant region); also called H:APF & L:wt; APF triple mutant
[4]
  ECL signal: 190
[5]
  ECL signal: 182
[6]
  ECL signal: 199
[7]
  ECL signal: 161
[8]
  ECL signal: 152
[9]
  ECL signal: 6670
[10]
  ECL signal: 235
[11]
  ECL signal: 230

B3: Fab VH1-46_IGHD3-10*01_IGHJ4*01 & O1_IGKJ1*01 (Fab, V domains shown)
VH: QVQLVQSGAEVKKPGASVKVSCKASGYTFTSYYMHWVRQAPGQGLEWMGIINPSGGSTSYAQKFQGRVTMTRDTSTSTVYMELSSLRSEDTAVYYCAREYYYGSGSYYNDYFDYWGQGTLVTVSS
VL: DIVMTQTPLSLPVTPGEPASISCRSSQSLLDSDDGNTYLDWYLQKPGQSPQLLIYTLSYRASGVPDRFSGSGSGTDFTLKISRVEAEDVGVYYCMQRIEFPSWTFGQGTKVEIKR
notes: Germline library Fab expressed in E. coli; VH was cloned into Plasmid A (CH1 constant region, His6 and Flag tags); The kappa VL was cloned into Plasmid C (kappa CL)
[12]
  ECL signal: 459
[13]
  ECL signal: 749
[14]
  ECL signal: 581
[15]
  ECL signal: 5860
[16]
  ECL signal: 498
[17]
  ECL signal: 735
[18]
  ECL signal: 466
[19]
  ECL signal: 539
